According to the nanobody polyreactivity screen of Harvey et al. (2022):

Test: yeast display, Sf9 membrane polyspecificity reagent, FACS + sequencing; frameworks hold sequencing errors
Outline: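 Nanobodies from a synthetic yeast display library (Saccharomyces cerevisiae BJ5465), induced 36–48 hours with galactose, were stained 1 hour at 4 °C with 10% biotinylated, detergent-solubilized Sf9 membrane reagent, enriched on streptavidin microbeads, then FACS-sorted. Anti-HA (expression) and streptavidin (reagent binding) fluorescence set low and high (top ~1%) gates. Polyreactivity labels come from the gate of origin. Genes were colony-PCR amplified, MiSeq 2 × 250 sequenced and filtered by CDR length.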

| Sequence | polyreactivity (PSR sort gate) |
| --- | --- |
| QVQLQERAAWCRRAGSLRLSCAASGNISDYYFMGWYRQAPGKERELVAAIAPGSNTYYADSVKGRFTISRDNAKNTVYLQMNSLKPEDTAVCFCAANSTQYSWFDYWGQGTQVPVSS | low polyreactivity |
| QVQLQERGGGLVQAGGSLRLTCAASGTISDSGLMGWYRQAPGKERELVAGISSGGITNYADSVKGRFTISRDNANNTVYLQMNSLKPEDNAVFWGQGSQVTVSS | low polyreactivity |
| QVQLQERGGGLVQVGGSKRLSCAASGNIFYNYSMGWYRHAQGKEREFDDTINHGTSINYADSVKGRFTISRDKATNTGYLEMNSLKPEDTAVFYCAADRSWTDNLFYWGQGSQVTVSS | low polyreactivity |
| QVQLQESAGGLVQAGGSLRRSCAASGSIFSNCAMGWYRQTPGKERELVASITAGGNNNYADSVKGRFTISRDNAKNTVYLPMNSLKPEETAVYYCNRRYPGPDSFEHYYYYRYDYWGQGTQVTVSS | low polyreactivity |
| QVQLQESAGGRQPAPELRGERLYFWLLLMGWYRQAPGEERELVAGINYGASTNYSDSVKGRFTISRDNARNTVYLKMNSLKPGDTAVYYCAVWQPVLIWFYYWGQGTQVTVSS | high polyreactivity |
| QVQLQESCGGLVQVGGSLRLSCAASVTIFIYGFLGWYRQAPGKERELVASINLGGITNYADSVKGRFTISRDNANNTVYLQMISLKPEDTAVYYCAAYVVTGQNYGYWGQGTQVTVSS | low polyreactivity |
| QVQLQESDGGLVQAGGSLRLSCAASGSISPQYYRGWYRQAPGKEREFVAISKGTSTYYADSVKGRLTISRVNAKNTVYLQMNSLKPEDTAVYCCAAGRWLQKVHAYWDQGTQVTVSS | low polyreactivity |
| QVQLQESGDGLVQAGGSLRLSSAASGTIFSDYGMGGYRQAPGKERELLAGISDGCNTNYTDSVKGRFTISRDNAHRVSADELPETGVYRGVLLRGCERWLLFYVYWGQGTQVTVSS | high polyreactivity |
| QVQLQESGDGLVQAVGSLRLSCAASGYISGKYYMGWYRKAPGNERGLLDGIDACGSRTNYADCVKGRFTISRDNAHNTVYLQMNSLKPEDTAVYYCAARPDGDRLFSYWGQGTQVPVSS | low polyreactivity |
| QVQLQESGGGLAQAGGCLRLSCAASGTIFPADSMGWYRQAPGIERELVAGITSGANTYYADSVKGRFTISHDNAKNTVYLQMDSLIPEDIAVYYCAAPGSSTYDLEYWGQGTQGTVSS | high polyreactivity |
| QVQLQESGGGLAQAGGSLRLSCAASGTIFPADSMGWYRQAPGKERELVAGITSGANTYYADSVKGRFTISHDNAKYTVYLQMDSLIPEDIAVYYCAAPGSSTYDLEYWGQGTQVTVSS | high polyreactivity |
| QVQLQESGGGLEPAGGSLRLSCAASGTISVHASMGWYRQAPGKERELVAGITDGANTYYADSVKGRFTISRDNSKNTVYLQMNSLKPEDTAVYYCAAYYGTAFHFTYWCQGTQVTVSS | low polyreactivity |
| QVQLQESGGGLEQAGGSLRLSCAASGYISDIGTMGWYRQAPGKEREFVATIVVGSTTNYADSVKGRFTISRDNAKNTVYLQPQSGRYRGVLLRAWLLAVGKFTYWGQGTQETVSS | low polyreactivity |
| QVQLQESGGGLLQADGSLRLSCAASGTIFTQSYMGWYRQAPGKEREFVAGISNGTNTNYGDSVKGRFTISRDNAKNTVYLQMNSLKLEDTAVYYCAVKGFYVDVLAYWGQGTHVTVSS | high polyreactivity |
| QVQLQESGGGLLQAGGSLRLSCAASGIIFDNPNKGWYRQAPGKERDLVATINSGATTNYADSVKGRFTISRDNAKNTVYLQMNSLIPVDTAVYYCAVDLSPTYFYYWGQGTQVTVSS | high polyreactivity |
| QVQLQESGGGLMQAGGSQRLSCAASGSISYYSDMAWYRQAPGKEREFVAGIGYGTSTNYADSVKGRFTTSRDNAKNTVYLQMISMKPEDTAVYYCAAYQGNGYEFYYWGQGTQVTVRS | low polyreactivity |
| QVQLQESGGGLMQAGGSQRLSCAASGSISYYSDMGWYPQAPGKEREFVAGIGYGTTTNYADSVKGRFTTSRDNAKNTVYMQMISMKPEDTAVYYCAAYQGNGYEFYYWGQGTQVTVRS | low polyreactivity |
| QVQLQESGGGLVKAGGSLRLSCAASGYLILQYAMGWYRPAPGKERELVASIARGTSTYYADSVKGRFTISRDNAKNTVYLQMNSLKPEDTAVYYCAVIYSWGLWHDYWGQGTQVTVSS | high polyreactivity |
| QVQLQESGGGLVLAGGSLRLSCADSGYISWSFTMVWYRKAPGKEREFVAGITYGGITYYADSVKGRFTISRDNAKNTVYLQMNSLKPEDTAVYYCAAPQTYPYVYVYWGQGTQLTVSS | high polyreactivity |
| QVQLQESGGGLVLAGGSLRLSCSASGNISVYGSMGWYRQAPGKEREFVATIDPGTNTNYADSVKDRFTISRDNAKNTVYLQMTSLKPEDTAVYYCAVEAGSDGPYRYWGQGTQVTVSS | low polyreactivity |
| QVQLQESGGGLVQACGIQRLSCAATGSISEGQDMGWYSRSPGKERECVAGIAPGATTYYADSLKGRFTISRDNAKKTVYLQMTSLKPEDTAVYYCAARSVTETDHDYWGQGSQVTVSS | low polyreactivity |
| QVQLQESGGGLVQACGSLRLSCAASGNISPQLYMGWYRQAPGKEREFVADIAEGSTTYYAESVKGRFTISRDDAKNTVYLHMISLKSEDTAVYYCAARYENAESFYYWGQGSQVTVSS | high polyreactivity |

| Sequence | polyreactivity (PSR sort gate) |
| --- | --- |
| QVQLQESGGGLVQACGSQRLSCAASGSICEGQDMGWYRRAPGKEREFVAGIAPGATTYYADSVKGRFTISRDNAKNTVYLQMNSLKPEDTAVYYCAARSVTETDHDSWGQGTQVTVSS | low polyreactivity |
| QVQLQESGGGLVQAGGCLRLSCAASGTSFDPDYMGWYHQAPGKERELVASISLGRITYNADSVKGRFTINRDNAKNTVYLQMNSLKPEDTAVYYCAVRVETIYYYSYWGQGTQVTVSS | high polyreactivity |
| QVQLQESGGGLVQAGGCLSCTASGTIFGQGDMGWYRQAPGKERELVATINDGASTYYADSVKGRFTISRDKAKNTVYLQKNSLKPDDTAGYYCAVFTDITTYFGYWGQGTQLTVSS | low polyreactivity |
| QVQLQESGGGLVQAGGDLRLTCAASGNIFRDYIMGWYRQAPGKEREFVAGIDRGANTNYADSVKGRFTISRDNAKNTVYLQMNSLKPEDTAVYYCAVHTAIVPDFIYWGQGTQVTVSS | low polyreactivity |
| QVQLQESGGGLVQAGGILRLSCAASGSIFHLHIMCWYRQEPGKERESVAAISNGTSTYYADSVKGRFTICRDNAKNTVYLQMNSPKPDDTAVYYCAALFLVSKHHHYWGEGTQVTVSS | low polyreactivity |
| QVQLQESGGGLVQAGGSLCLSCAASGTIFFDGDMGWYRQAPGKEREFVAAINPGGSAYYADSVKGRLPLAAITHTVYLQMISLKPEDTAVYYCAAKLFDVYGYYYWGQGTHVTVSS | low polyreactivity |
| QVQLQESGGGLVQAGGSLLSCAASGTISWDDEMGWYLQAPGNERELVAGIAGGGNTNYADSVKGRFTISRDNAKNTVYLQMNSLDTAVYYCAVVGFGRGTHIYWGQGTQVTVSS | high polyreactivity |
| QVQLQESGGGLVQAGGSLLSCAASGTISWVDEMGWYLQAPGNERELVAGIAGGGNTNYADSVKGRFTISRDNAKNTVYLQMNSLDTAVYYCAVVGFGRGTHIYWGQGTQVTVSS | high polyreactivity |
| QVQLQESGGGLVQAGGSLLSCAASGTISWVDEMGWYRQAPGNERELVAGIAGGGNTNYADSVKGRFTISRDNAKNTVYLQMNSLDTAVYYCAVVGFGGGTHIYWGQGTQVTVSS | high polyreactivity |
| QVQLQESGGGLVQAGGSLLSCAASGTISYYREMGWYRQAPGKERELVAGIGVGTITYYADSVKGRFTISRDNAKNTVYLQMNSLKPEATAVYYCAAHIDGNDSHAYWGQGTQVTVSS | low polyreactivity |
| QVQLQESGGGLVQAGGSLLSCAASGTISYYREMGWYRQAPGKERELVAGIGVGTITYYADSVKGRFTISRHNAINTVYMQMNSLKPEDTAVYYCAAHIDGNDSHAYWGQGTQVTVSS | low polyreactivity |
| QVQLQESGGGLVQAGGSLRLGCAASGNISDAGYMGWYRQAPGKEREFVAAIAAGSNTNYADSVKGRFTISRDNAKNTVYLQMNSLKPEVTAVFYCAVACYARVQYEYWGQGTQVTVNS | low polyreactivity |
| QVQLQESGGGLVQAGGSLRLSCAASGIIFDNPNMGWYRQAPGKERELVATINSGATTNYADSVKGRFTISRDNAKNTVYLQMNSLIPEDTAVYYCAVDLSPTYFYYWGQGTQVTVSS | high polyreactivity |
| QVQLQESGGGLVQAGGSLRLSCAASGNFFDADIMGWYRQAPGKERELVASITDGGSTNYAVSVKGRFTISRGNTKNTVYLLMNCLKPEDTSVYYCAAIAYPDIPTYFDYNSDYFYWGQGTQVTVSS | high polyreactivity |
| QVQLQESGGGLVQAGGSLRLSCAASGNIFDADIMGWYRQAPGKERELVASITDGGSTNYADSVKGRFTISRDNAKNSVYLQMNSLLPEDTAVYYCAAIAYPDIPTYFDYDSDYFYWGQGTQVTVSS | high polyreactivity |
| QVQLQESGGGLVQAGGSLRLSCAASGNIYDADIMGWYRQAPGKERELVTSITDGGSTNYADSVKGRFTISRDNAKNTVYLQMNSLKPEDTAVYYSAAIAYPDIPTSFDYNSDYSYWGQGTQVTVSS | low polyreactivity |
| QVQLQESGGGLVQAGGSLRLSCAASGPISRRSNMGWYRQSPGKESELVTAITRGTNTNYADSVKGRFTISRDNAKYTEYLQMNSLNPEDTAVYYCADYGVLKPSRGDAVFNRYWGQGTQVTVSS | low polyreactivity |
| QVQLQESGGGLVQAGGSLRLSCAASGPISRRSTMGWYRQAPGKERELVTAITRGTNTNYADSVKGRFTISRDNAKNTEYLQMYCLKPEDTAVYYCAAYGVLKPSRGDAVFHRYWGQGTQVTVSS | low polyreactivity |
| QVQLQESGGGLVQAGGSLRLSCAASGSIFHLHIMCWYRQAPGKERESVAAISYGTSTYYADSVKGRFTICRDNAKNTLYLQMNSPKPDDTAVYYCAALFLVSKHHHYWGEGTQVTVSS | low polyreactivity |
| QVQLQESGGGLVQAGGSLRLSCAASGSIFHLHIMCWYRQAPGKERESVAAISYGTSTYYADSVKGRFTICRDNAKNTVYLKMNSPKPDDTAVYYCAALFLVSKHHHYWGEGTQVTVSS | low polyreactivity |
| QVQLQESGGGLVQAGGSLRLSCAASGSIFHLHIMCWYSQAPGKERESVAAISYGTSTYFADSVKGRFTICRDNAKNTVYLQMNSPKPYDTAVYYCAALFLVSKHHHYWGEGTQVTVSS | low polyreactivity |
| QVQLQESGGGLVQAGGSLRLSCAASGSISELRPMGWYRQAPGKERELVAGISTGGSTNYADSVKGRFTISRDNAKNTVYLQMNSLKPEDTAVYYCAAASYGEGTYDYWGQGTQVTVRS | high polyreactivity |
